Source: the nanobody polyreactivity screen of Harvey et al. (2022)

Experiment: yeast display, Sf9 membrane polyspecificity reagent, FACS + sequencing; frameworks hold sequencing errors
Method in brief: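 Polyreactivity labels are assigned by the sorting gate from which each nanobody was recovered. The gates were low and high (top ~1%), set on anti-HA fluorescence for expression and streptavidin fluorescence for reagent binding. Before sorting, galactose-induced (36–48 hours) yeast display cells were stained for 1 hour at 4 °C with 10% biotinylated, detergent-solubilized Sf9 membrane reagent.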

Sequence	polyreactivity (PSR sort gate)
QVQLVESGGGLVQAGGSLRLSCAASGLTFNVYAMGWYRQAPGKERELVASITKRGGSTYYADSVKGRFTISRDNAKNTVYLQMNSLKPEDTAVYYCAADGLTGSIYRATGYYWGQGTQVTVSS	high polyreactivity
QVHLVESGGGLVQAGGSLRLSCAASGITFRRNAMGWYRQAPGKERELVARITVSGGTTYYADSVKGRFTISRDYAKNTVYLQMNSLKPEDTAVYYCAKVWHSSRVSPYDYWGQGTQVTVSS	low polyreactivity
QVQLVESGGGLVQAGGSLRLSCAASGSIFPGYAMGWYRQAPGKERELVAGITWSDARTYYADSVKGRFTISRDNAKNTVYLQMNCLKPEDTAVYYCAADYYYYELDYWGKGTQVTVSS	low polyreactivity
QVQLVESGGGLVQAGGSLRLTCAASGSIFTKYAMGWYRQAPGKERELVAGISSSGCSTYYADSVKGRFTISRDYAKNTVYLQMNSLKPEDTAVYYCAARGYYKYDYWGQGTQVTVSS	high polyreactivity
QVQLVASGGGLVQAGGSLRLSCAASGSIFRFNPMGWSRHEPGKERELVAAISQSGSSTYYADSLKGRFTISRDNAKNTVYLQMNSLKPEDTAVYYCNVYTYQPYRMDLWRQGTQVTVSS	high polyreactivity
QVQLVESGGGLVQAGGSLRLSCAASGYTFYEYAMGWYRQAPGKERELGAAIRGSGGGTYYADSVKGRFTISRDNAKNTVYLQMNSLKPEDTAVYYCAVKYAYPYAGVSAIRYYYWGQGTQVTVSS	low polyreactivity
QVQLVESGVGLVQAGGSLRLSCAASGFSFAVYGMGSYIQAPGKQRELVAAISTGDSTKYADSVKARFTISRDNAKNTVYLQKNSLKPEDTEVYYCAARIPWSPWLGYWGQGTQVTVST	high polyreactivity
QVQLVESGGGLVQAGGSLSLSCAASGSIFASYAMGWYRQAPGKERELVAAITSDGNTYYADSVKGRFTISRDNAKNTVYLQMNSLKPEDTAVYYCAADRYSTYPYAKGTEFYYWGQGTQVTVSS	low polyreactivity
QVQLVETGGGLVQAGGSLRLSCAASGSIFPSYAMGWYRPAPAKERELVAAISRSAGSTYYADSVKGRFTISRDNSKNTVYLQMNSLKPEDTAVYYCADDGYSSRYRYDYWGQGTQVTVSS	low polyreactivity
EVQLVESGGGLVQPGGSLRLSCAASGYIYSRYRMGWYRQAPGKGREFVAAISGGSSTNYADSVKGRFTISRDNSKYTVYLQMNSLRAEDTAVYYCAAFKIDSDPRVYWGQGTQVTVSS	low polyreactivity
QVQLVESGGGLVQAGGSLRLTCAASGRILLVNAMGWSRQAPGKERELVAAITSGGSTNYADSVKGRFTISRDNAKNTVYFQMNSLKPEDTAVYFCAATITLYRSRGRYGYWGQGTQVTASS	high polyreactivity
QVQLVESGGGLVQAGGSLRLSCAASGSTFTYYAMGWYRQAPGKERELVAAISSNGGSTSYADSVKGRFTISRDNAKNTVYLPMNRLKPEDTAVYYCAVYKWSTRVSQYRYDYWGQGTQVTVSS	high polyreactivity
QVQHVESGGGLVQAGGSLRLSCAASGRTLLGNAMGRYRQAPGKEREFVAAISYRGGSTYYADSVKGRFTISRDNAKNTVYLQMNSLKPEDTAVYYCAASSFKYSRFDYWGQGTQVTVSS	low polyreactivity
QVQHEDSGGGLVQAGGSHPLSCAASGSTFRVNAMGWYRQAPGKERELVAAISRRGGSTYYADSVKGRFTISRDNSKNTVYLQMNCLKPEDTAVYYCAAERLGTVQDDYWGQGTQVTVSS	high polyreactivity
QDQLVESGGGLVQAGASLRLSCAASGSIICLYAMGWYRQAPGKERELVARITRSGGRTYYADSVKGRFTISRDNAKNTVYLQTNSLKPEDTAVYYCNAYGPNIYSSRYDYWGQGTQVSVSS	low polyreactivity
QVQLVESGGGLVQAGGSLRLSCAASGSTFTGNAMGWYRQAPGKERELVAAISRSGGSTFYADSVKGRFTISRDNAKNTVYLQINSLKPEDTAVYYCAAPVYLYGTVGRGDYWGQGTQVTVSS	high polyreactivity
QVQLVESGGGLVQAGGSLRLSCAASGSTFTIYAMGWYRQAPGKEREFVAAIDEDDGSTYYADSVKGRFTISRDNAKNTVYLQMNSLKPEDTAVYYCNADDIWGYAFDYWGQGTQVTVSS	low polyreactivity
QVQLVESGGGLVQEGGSLSLSCAASGITFRSYTMGWYRQAPGKERELLAGITRRGGSTFYADSVKGRFTISRDNATNTVYLQMNSLNPEDTAVYFCAVGFYYLSSWYSYDYRGQGTQVTVSS	high polyreactivity
QVHLVDSGGGLVQAGGSLRLSCAASGSTSGTNAMGWYRQAPGKERELVAGISYRGGSTYYADSVKGRFTISRDNAKNTVYLQMNSLKPEDTAVYYCAARKLKYRREYWGQGTQVTVSS	high polyreactivity
QVQLVESGGGLVQAGGSLRISCAASGFTFAYYAMGRYRQAPGKERELVASITSGGSTYYADSVKGRFTISRDNAKNNVYLQMNSLKPEDTAVYYCAADSSIDYDWGQGTQVTVSS	high polyreactivity
QVQLVESGGGLVQAGGSLRLSCAASGRTFAFYTMGWYRQAPGKEREFVAAISWSGGSTHYADSVKGRFTISRDNAKNTVYLQMNSLKQEDSAVYYCAAGPFYRFTDGRYKTLDYWGQGTQVTVSS	high polyreactivity
QFQLVESGGGLVQAGGSLRLICAASGITFYPNDMGWYRQSPGKERELVAAITTNDGDTYYADSVKGRFTISRDNAKNTVYLQMNSLKPEDTAVYYCAADSGSTSEYEYWGKGTQVTVSS	low polyreactivity
QVQLVESGGGLVQAGGSLRLSCAASGSIFVANAMGWYRPAPGKERELVAAISSGGSTYYADSVKGRFTISRDNAKNTVYLQMNSLKPEDTAVYDCAAGQPNLVVGHYYWGQGTQVTVSS	low polyreactivity
QVQLVESGGGIVQAGGSLRLSCAASVFTFSDYTMGWYRQAPGKERELVAAINRGGNTYYADSVKGRFTISRDNAKNTVYLQMNSLKPEDTALYYCAAASYYAPYYWGQCTQVTVSS	high polyreactivity
QVQLVESGGGLVQAGGSLRLSCAASGSIFVGNAMGWYRQAPGKERELVAAISRSGGRTYYADSVKRRFTISRDNAKITVYLQMNSLKPEHTAVYYCNAYGWEQLQMDSWGQGTQVTVSS	high polyreactivity
QVQLVESGGALVQAGGSLRLSCAASGSIFRFYAMGWYRQAPGKERELVAAISWSGGSTYYADSVKGRFTISRDNAKNTVYLQMNSLKPEDTAVYYCNTRYYGGFDSWGQGTQVTVSS	high polyreactivity
QDQLVESGGGLVQAGGSLRLSFAASGATFKRYAMGWYRQAPGKERELVATINSGTSTNYADSVKGRFTISRDNAKNTVYLQMNSLKPEDTAVYYCAKTFRRSVGGYGYDYWGQGTQVTVSS	low polyreactivity
QVQLVETGGRLVQAGGSLRVSCAASGITFECYAMGWSRQATGKERELVAAIRSSGTSTYYADSVKGRFTISRDNAKNTVYLQMMSLKPEDTAVYYCNLARSSSRYDYWGQGTQVTVSS	low polyreactivity
QVQLVESGGGLVQAGGSLRLSCAASGSIFSPNAMGWYRQAPGKERELVAAITRGGSTYYADSVKGRFTISRDNAKKTVYLQMNSLKPEDTAVYYCAKRSKQFSTQYLYGYWGQGTQVTVSS	low polyreactivity
QVQLVESGGGLVQAGGSLRLSCAASGNIIDANAMGWYRQAPGKERELVAAITSSGGSTYYADSVKGRFTISRDNAKNTVYLQMNSLKPEDTAVYYCAKSHAIYYWWDESWGQGTQVTVSS	low polyreactivity
